Test results from patent US20180334702A1.
No end group written: not given here. *: point of attachment. aminohexane = linker joining biotin to the N-terminal residue; Biotin = O=C1N[C@H]2[C@H](CS[C@H]2CCCCC(=O)*)N1

B1: Polypeptide F (peptide)
peptide: {Biotin-aminohexane}-AMPWSPAPAARAGGG
B2: Polypeptide 14 (peptide)
peptide: {Biotin-aminohexane}-GMPYSPNPWWRGGGG
B3: Polypeptide 11 (peptide)
peptide: {Biotin-aminohexane}-GMPWSPNPWWAGGGG
B4: Polypeptide 13 (peptide)
peptide: {Biotin-aminohexane}-GMPFSPNPWWRGGGG
B5: Polypeptide 5 (peptide)
peptide: {Biotin-aminohexane}-GMPASPNPWWRGGGG
B6: Polypeptide D (peptide)
peptide: {Biotin-aminohexane}-GMFWSPNPWWRGGGG
B7: Polypeptide 3 (peptide)
peptide: {Biotin-aminohexane}-GAPWSPNPWWRGGGG
B8: Polypeptide 15 (peptide)
peptide: {Biotin-aminohexane}-GMPWSWNPWWRGGGG
B9: Polypeptide 7 (peptide)
peptide: {Biotin-aminohexane}-GMPWSPAPWWRGGGG
B10: Polypeptide 4 (peptide)
peptide: {Biotin-aminohexane}-GMAWSPNPWWRGGGG
B11: Polypeptide 6 (peptide)
peptide: {Biotin-aminohexane}-GMPWSANPWWRGGGG
B12: Polypeptide 8 (peptide)
peptide: {Biotin-aminohexane}-GMPWSPNAWWRGGGG
B13: Polypeptide B (peptide)
peptide: {Biotin-aminohexane}-GMPWSPNPWWKGGGG
B14: Polypeptide C (peptide)
peptide: {Biotin-aminohexane}-GMWWSPNPWWRGGGG
B15: Polypeptide A (peptide)
peptide: {Biotin-aminohexane}-GMPWSPNPWWHGGGG
B16: Polypeptide 9 (peptide)
peptide: {Biotin-aminohexane}-GMPWSPNPAWRGGGG
B17: Polypeptide 16 (peptide)
peptide: {Biotin-aminohexane}-GMPWSFNPWWRGGGG
B18: Polypeptide 1 (peptide)
peptide: {Biotin-aminohexane}-GMPWSPNPWWRGGGG
B19: Polypeptide 10 (peptide)
peptide: {Biotin-aminohexane}-GMPWSPNPWARGGGG
B20: Polypeptide 17 (peptide)
peptide: {Biotin-aminohexane}-GMPWSYNPWWRGGGG
B21: Polypeptide 12 (peptide)
peptide: {Biotin-aminohexane}-GMPWSPNPWWRAGGG
B22: Polypeptide 2 (peptide)
peptide: {Biotin-aminohexane}-AMPWSPNPWWRGGGG
B23: Polypeptide E (peptide)
peptide: {Biotin-aminohexane}-GMYWSPNPWWRGGGG

Molecular target: CDK4/6
Assay: cell-based or functional assay
Settings: scale: relative value

| CDK4/6 Reactivity | Binder |
| --- | --- |
| 7 | B1 |
| 5 | B2 |
| 3 | B3 |
| 5 | B4 |
| 1 | B5 |
| 5 | B6 |
| 33 | B7 |
| 2 | B8 |
| 8 | B9 |
| 5 | B10 |
| 1 | B11 |
| 7 | B12 |
| 5 | B13 |
| 5 | B14 |
| 7 | B15 |
| 7 | B16 |
| 2 | B17 |
| 13 | B18 |
| 15 | B19 |
| 2 | B20 |
| 6 | B21 |
| 15 | B22 |
| 6 | B23 |
